Source: patent US20190248902A1 (published 2019)
Residue numbers refer to the chain shown, from its start.

T1: human ASGR-1 mutant construct H203 (human, UniProt P07306 1-291)
T1 construct: Arg/Glu scanning: non-arginine residues were changed to arginine; Transiently expressed on CHO-S cells
T1 sequence: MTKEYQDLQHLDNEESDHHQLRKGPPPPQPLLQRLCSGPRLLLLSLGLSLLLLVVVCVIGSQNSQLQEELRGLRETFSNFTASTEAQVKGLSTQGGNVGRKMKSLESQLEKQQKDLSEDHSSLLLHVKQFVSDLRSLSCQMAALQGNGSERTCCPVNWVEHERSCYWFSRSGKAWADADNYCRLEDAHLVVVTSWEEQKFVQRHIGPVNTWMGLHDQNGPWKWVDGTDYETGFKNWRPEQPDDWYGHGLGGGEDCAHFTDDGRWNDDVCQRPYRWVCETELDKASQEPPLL

T2: human ASGR-1 (wild type) (human, UniProt P07306 1-291)
T2 construct: also called wt ASGR1; huASGR-1
T2 sequence: T1 sequence with R203H

B1: 6G7 (antibody, V domains shown)
VH: QVQLVESGGGVVQPGRSLRLSCAASGFTFSSYGMHWVRQTPGKGLEWVAIISYVGKNKYYADSVKGRFTISRDNSKNTLYLQMNSLRAEDTAVYYCARRGNSYGGYGMDVWGQGTTVTVSS
VL: DIQMTQSPSSRSASVGDRVTITCQASQDISNYLNWCQQKPGKALKLLIYDASTLETGVPSRFSGSGSGTDFTFTISSVQPEDIATYYCQQYDNVPITFGQGTRLEIK
notes: mAb
B2: 48B12 (antibody, V domains shown)
VH: EVQLLESGGGLVQPGGSLRLSCAASGFTFSSYAMNWVRQAPGKGLEWVSAISGRGGNTFYADSVKGRFTISRDNSKNTLYLQMNSLRAEDTAVYYCAKRETYNWNYEGFDYWGQGTLVTVSS
VL: SYELTQPPSVSVSPGQTARITCSGDALPKKYAYWYQQKSGQAPVLVIYEDSKRPSGIPERFSGSSSGTMATLTISGAQVEDEADYYCNSTDSSGNHVVFGGGTKLTVL
notes: mAb
B3: 176H4 (antibody, V domains shown)
VH: QVQLVESGGGVVQPGRSLRLSCAASGFTFSSYGMHWVRQAPGKGLEWVAIIWYDGSYKYYADSVKGRFTISRDNSKNTLYLQMSSLRAEDTAVYYCARDAHDFWSGYFAYWGQGALVTVSS
VL: DIVMTQTPLSLSVTPGQPASISCKSSQSLLHGDGKTYLYWYLQKPGQPPQLLIYEVSNRFSGVPDRFSGSGSGTDFTLKISRVEAEDVGIYYCMQSIQIPWTFGQGTRVEIK
notes: mAb
B4: 72G9 (antibody, V domains shown)
VH: EVQLVESGGGLVKPGGSLRLSCAASGFTFSSYSMNWVRQAPGKGLEWVSSISGSSSYIYYADSVKGRFTISRDNAKNSLYLQMNSLRAEDTAVYFCARGGSRGFDPWGQGTLVTVSS
VL: DIQMTQSPSSLSASVGDRVTITCRASQSITSYLNWYQQKPGKAPKLLIYTASSLQSGVPSRFSGSGSGTDFTLTISSLQPEDFATYYCQQSHSFPFTFGPGTKVDIK
notes: mAb
B5: 184E7 (antibody, V domains shown)
VH: QVQLVQSGAEVKTPGASVKVSCRASGYTFTSYNMHWVRQVPGQGLEWMGWINPNNGGSNYTQKFQGRVTMTRDTSISTAYMELSRLRSDDTAVYYCARKFGDWGQGTLVTVSS
VL: DIQMTQSPSSRSASIGERVTITCRASQGISNYLAWIQQKPGTAPKSLIYAASSLQSGVSSRFSGSGFGTDFTITISSVQREDFATYYCQQYNGYPFTFGHGTKVDIK
notes: mAb
B6: 190F8 (antibody, V domains shown)
VH: QVQLVESGGGVVQPGRSLRLSCAASGFTFSTYGMHWVRQAPGKGLEWVAVIWYDGSNKNYADSVKGRFTISRDNSKNTLYLQMNSLRAEDTAVYYCARDQGVGYDGLDVWGQGTTVTVSS
VL: DIQMTQSPSSLSASVGDRVTITCRTSQGIGNYLAWFQQKPGKAPKSLLYKASSLQSGVPSKFSGSGSGTDFTLTISSLQPEDFATYYCQQYMTYPLTFGGGTKVEIK
notes: mAb
B7: 197G3 (antibody, V domains shown)
VH: B6 VH with A23V, T31S, Y32H, Q100P, G101S, L107M
VL: DIQMTQSPSSLSASVGDRVTITCRASQGIGNHLAWFQQKPGKAPKSLIYAASSLQSGVPSKFSGSRSGTDFSLTISSLQPEDFATYYCQQYSNYPVTFGPGTKVDIK
notes: mAb
B8: 194C1 (antibody, V domains shown)
VH: B6 VH with T31S, K58E, N59H, D99N, Q100R, D105Y
VL: B6 VL with T25A, G30S, L48I, K50A, Q89L, Q90H, M92L
notes: mAb
B9: 191G10 (antibody, V domains shown)
VH: B6 VH with T31S
VL: B6 VL with N31K, A51V
notes: mAb
B10: 198G3 (antibody, V domains shown)
VH: B6 VH with R19K, S56T, Y80C
VL: B6 VL with T5A, N31K, S56G
notes: mAb
B11: 191G1 (antibody, V domains shown)
VH: B6 VH with T31S, K58E, N59H, Q100R, D105Y
VL: B6 VL with T25A, G30S, L48I, K50A, Q90H, M92L
notes: mAb
B12: 194A4 (antibody, V domains shown)
VH: QVQLVQSGTEVKKPGASLKVSCKASGYTFTVYYLNWVRQAPGQGLEWMGWINPNSGGTNYAQKFQGRVTMTRDTSISTAYMELSRLRSDDTAVYYCARGYDILTGWGQGTLVTVSS
VL: EIVLTQSPGTLSLSPGERATLSCRASRGVSNIYLAWYQQKPGQAPRLLIYGASNRATGIPDRFSGSGSGTDFTLTISRLEPEDFAVYYCQHNDYSMFTFGPGTKVDIK
notes: mAb
B13: 22G5 (antibody, V domains shown)
VH: EVQLLESGGGLVQPGGSLRLSCAASGFTFSSYAMNWVRQAPGMGLEWVSVISRSGGYTYYADSVKGRFTISRDNSKNTLYLQMNSLRAEDTAVYYCASRLAVAGSEAFDIWGQGTLVTVSS
VL: DIQMTQSPSSLSASVGDRVTITCRASQNISSYLNWYQQKQGKAPKLLIYAASSLQNGVPSRFSGRGSGTDFTLTISSLQPEDFATYYCQQSYRTPLFTFGPGTKVDFK
notes: mAb
B14: 25A4 (antibody, V domains shown)
VH: QVLLVQSGAEVKRPGASVKVSCKASGYTFTNYDINWVRQATGQGLEWMGWMYPNSGNTGYAQKFQGRVTMTRNTSISTAYMELSSLRSEDTAVYYCASSSGWYYFDYWGQGTLVTVSS
VL: DIVMTQFPDSLAVSLGERATIKCKSSQSVLYSSHNNNYLAWYQQKPGQPPKLLLYWASTRESGVPDRFSGSGSGTEFTLTISSLEAEDVAVYYCQQYYSTPPTFGQGTKVEIK
notes: mAb

Target: T1, human ASGR-1 mutant construct H203
Assay: FACS ratio: H203 normalized value / wt normalized value
In short: (§1)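 Transiently transfected CHO-S cells expressing wild-type or mutant hASGR-1 incubated with antibody at 5 ug/ml, 1 h at 4 °C; bound antibody detected by Alexa Fluor 647 anti-Fc plus 7-AAD, by flow cytometry. Binding normalized to expression using an unaffected antibody (65C12), then to wild type; hits defined as >3× IQR above third quartile.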

Point of comparison: B11, “Normalization to wt ASGR1 Binding” value 1.07. Against it:
- B1 — higher, 1.18
- B2 — higher, 1.18
- B3 — higher, 1.5
- B4 — lower, 0.893
- B5 — the same, 1.07
- B6 — higher, 1.11
- B7 — higher, 1.75
- B8 — lower, 0.868
- B9 — lower, 0.912
- B10 — lower, 0.75
- B12 — lower, 0.616
- B13 — higher, 1.37
- B14 — higher, 1.27

Target: T1, human ASGR-1 mutant construct H203
Assay: FACS, transfected CHO-S cells, mAb 5 ug/ml
In short: as §1

Point of comparison: B14, “FACS Binding Geomean” value 20000. Against it:
- B1 — lower, 15100
- B2 — higher, 20500
- B3 — lower, 10200
- B4 — lower, 18800
- B5 — lower, 18400
- B6 — lower, 15100
- B7 — lower, 3500
- B8 — lower, 11000
- B9 — lower, 17000
- B10 — lower, 13100
- B11 — lower, 10900
- B12 — lower, 12100
- B13 — lower, 15100

Target: T2, human ASGR-1 (wild type)
Assay: FACS, transfected CHO-S cells, mAb 5 ug/ml
In short: as §1

Point of comparison: B3, “FACS Binding Geomean” value 33500. Against it:
- B1 — higher, 38600
- B2 — higher, 52500
- B4 — higher, 36500
- B5 — higher, 42700
- B6 — higher, 36500
- B7 — lower, 13300
- B8 — lower, 20900
- B9 — higher, 33800
- B10 — lower, 21500
- B11 — lower, 25300
- B12 — lower, 16300
- B13 — higher, 45000
- B14 — higher, 55600
